According to the DeepSol protein solubility set:

assay: soluble on expression in E. coli; label from the status in PepcDB or PDB records

Sequence | soluble on expression in E. coli
PVTNMAELDAMIARVKKAQEEFATYSQEQVDKIFRAASLAANQARIPLAQQAVEESGMGIVEDKVIKNHFASEFIYNKYKDEQTCGILEEDDNLGTMTIAEPVGIICGIVPTTNPTSTAIFKSLISLKTRNGIIFSPHPRAKNSTNDAAKLVLDAAVAAGAPKDIIGWIDQPSVELSNALMKHDDIALILATGGPGMVKAAYSSGKPAIGVGAGNVPVVIDETADIKRAVASVLMSKTFDNGVVCASE | not soluble
MGSSESIVKLNVGGTVFVTLKSTLTKHHGIFKALVKTEMPAEDGDSFFIDRSPKHFETVLNYIRSGDVDLPDSENELKELKREAEYYSLEKLATLCQSSMPKIKSYKTADELLNMIANTKKVVVVIHYLAYKNQLHTIPLGFKFSEFVERNKDKAEVFIYEIKDEEELKDKPYVDDPNRVWSFCIFNSEWSENYPLKSLRDIQVQLDCFGDF | not soluble
MKKFSGIIPPVSSTFHRDGTLDKKAMREVADFLINKGVDGLFYLGTGGEFSQMNTAQRMALAEEAVTIVDGRVPVLIGVGSPSTDEAVKLAQHAQAYGADGIVAINPYYWKVAPRNLDDYYQQIARSVTLPVILYNFPDLTGQDLTPETVTRLALQNENIVGIKDTIDSVGHLRTMINTVKSVRPSFSVFCGYDDHLLNTMLLGGDGAITASANFAPELSVGIYRAWREGDLATAATLNKKLLQLPAIYALETPFVSLIKYSMQCVGLPVETYCLPPILEASEEAKDKVHVLLTAQGILPV | not soluble
MATVTKAPKKQIQFADDMQEFTKFPTKTGRRSLSRSISQSSTDSYSSAASYTDSSDDEVSPREKQQTNSKGSSNFCVKNIKQAEFGRREIEIAEQDMSALISLRKRAQGEKPLAGAKIVGCTHITAQTAVLIETLCALGAQCRWSACNIYSTQNEVAAALAEAGVAVFAWKGESEDDFWWCIDRCVNMDGWQANMILDDGGDLTHWVYKKYPNVFKKIRGIVEESVTGVHRLYQLSKAGKLCVPAMNVNDSVTKQKFDNLYCCRESILDGLKRTTDVMFGGKQVVVCGYGEVGKGCCAALKALGAIVYITEIDPICALQACMDGFRVVKLNEVIRQVDVVITCTGNKNVVTREHLDRMKNSCIVCNMGHSNTEIDVTSLRTPELTWERVRSQVDHVIWPDGKRVVLLAEGRLLNLSCSTVPTFVLSITATTQALALIELYNAPEGRYKQDVYLLPKKMDEYVASLHLPSFDAHLTELTDDQAKYLGLNKNGPFKPNYYRY | not soluble
QLSSFETCAEKEESANTTESAIFEYHCEMSFDPNLLHNNGHNGYPNGTSAALRETGVIEKLLTSYGFIQCSERQARLFFHCSQYNGNLQDLKVGDDVEFEVSSDRRTGKPIAVKLVKIKQEILPEERMNGQVVCAVPHNLESKSPAAPGQSPTGSVCYERNGEVFYLTYTPEDVEGNVQLETGDKINFVIDNNKHTGAVSARNIMLLKKKQARCQGVVCAMKEAFGFIERGDVVKEIFFHYSEFKGDLETLQPGDDVEFTIKDRNGKEVATDVRLLPQGTVIFEDISIEHFEGTVTKVIPKVPSKNQNDPLPGRIKVDFVIPKELPFGDKDTKSKVTLLEGDHVRFNISTDRRDKLERATNIEVLSNTFQFTNEAREMGVIAAMRDGFGFIKCVDRDVRMFFHFSEILDGNQLHIADEVEFTVVPDMLSAQRNHAIRIKKLPKGTVSFHSHSDHRFLGTVEKEATFSNPKTTSPNKGKEKEAEDGIIAYDDCGVKLTIAFQAKDVEGSTSPQIGDKVEFSISDKQRPGQQVATCVRLLGRNSNSKRLLGYVATLKDNFGFIETANHDKEIFFHYSEFSGDVDSLELGDMVEYSLSKGKGNKVSAEKVNKTHSVNGITEEADPTIYSGKVIRPLRSVDPTQTEYQGMIEIVEEGDMKGEVYPFGIVGMANKGDCLQKGESVKFQLCVLGQNAQTMAYNITPLRRATVECVKDQFGFINYEVGDSKKLFFHVKEVQDGIELQAGDEVEFSVILNQRTGKCSACNVWRVCEGPKAVAAPRPDRLVNRLKNITLDDASAPRLMVLRQPRGPDNSMGFGAERKIRQAGVID | soluble
MGSDKIHHHHHHMQLGTGLFTCQQRPDDDRETSEIYDEMLELGEVIDNAGLDSAWVSEHHFLDDDYLSGVTPALGALAAVTDNIEIGSCIALAPLYDSIRLAEDIATVDQISGGRTTLGMAIGSNVSEFDAFGIPDDERAERLADAVDTLRGAWSDGPLDYEPEFHDISSDVTVTPKPAHDVPLMLGGASRPAVRRAARTADAWCAPSSLSVDGVRKRVEDIRNVRDDEDIEGDFQVYVLQHGFIGDSREDAWAQMRDGYLYIQRRYEEIFSGETVAELDEERKQELKEQAIFGTPDQVTAELESYREALGDDIHFIFRTYHPGTGTQEMAECIRRLGEEVQPKIS | not soluble
MGSDKIHHHHHHMTMPTNQCPWRMQVHHITQETPDVWTISLICHDYYPYRAGQYALVSVRNSAETLRAYTISSTPGVSEYITLTVRRIDDGVGSQWLTRDVKRGDYLWLSDAMGEFTCDDKAEDKFLLLAAGCGVTPIMSMRRWLAKNRPQADVRVIYNVRTPQDVIFADEWRNYPVTLVAENNVTEGFIAGRLTRELLAGVPDLASRTVMTCGPAPYMDWVEQEVKALGVTRFFKEKFFTPVAEAATSGLKFTKLQPAREFYAPVGTTLLEALESNNVPVVAACRAGVCGCCKTKVVSGEYTVSSTMTLTDAEIAEGYVLACSCHPQGDLVLA | not soluble
MGSDKIHHHHHHMLRRIKAEQLQVGMFVARLGGPWHARAFRRSRFLVTSEEQVGEIRSSGVDEVWIDILKGRNAPTPQAATSPWETPEPAPALATANSLPAEFGLARELLQSGKSVIGSMFADVRMGRALEVSGALLLVDSASQSLSRHSQALIALARLKARDDYSYMHAFAVCALMVAVGRTMELPPEEVRDLGLAGLLHDIGKLTLPEAVLHKPTSRRPGEDEEIKRHPSAGYRILNEARLNANIVLDVCVHHHERVDGRGYPFGLVGRELSVHARIAAICDTYDSLTSSRPGHQQWSPARAMEYMAVRVDTLFDSRVFKAFTRTVGIYPLGTVLRLRSNRLAVVCAQHESEPLRPRVMAFYSVSASSALTPEVIDLSTSDDTVVAFEDPADWGYTDEQLLAIYAGQGQAGAAQAAAMAMPAA | not soluble
MGSDKIHHHHHHMTSEKGIIFNIQHFSIHDGPGIRTTVFLKGCPLRCPWCSNPESQKYKPEQMLDAETKLPMIIGEEKTVEDIISEVKKDIDFYEESGGGLTLSGGEIFAQFEFAKAILKCAKEEGLHTAIETTAFAEHEKFTDLIQYVDFIYTDLKHYNTIRHRKVTGVNNNFIIQNIHYAFTHKKTIVLRIPVIPDFNNSLDDAEHFAKLFNDIQVDKVQLLPFHQFGENKYKFLNRKYEMSGYTALHPEDLYDYQSVFLEHGIDCYF | not soluble
MAKAGREGPRDSVWLSGEGRRGGRRGGQPSGLDRDRITGVTVRLLDTEGLTGFSMRRLAAELNVTAMSVYWYVDTKDQLLELALDAVFGELRHPDPDAGLDWREELRALARENRALLVRHPWSSRLVGTYLNIGPHSLAFSRAVQNVVRRSGLPAHRLTGAISAVFQFVYGYGTIEGRFLARVADTGLSPEEYFQDSMTAVTEVPDTAGVIEDAQDIMAARGGDTVAEMLDRDFEFALDLLVAGIDAMVEQA | soluble
MSLTELYIHNGRDVSGAPVAVLITDGVIAEVGTELTVPVGCPTLDAQGCYITAGWIDDHTHCNAHAALYYDDADAIGYRTGVTTVIDAGSTGADNVADLYQQAHRAATNVYALLNIARTGIVAQDELADLNQLSFSALRTAIKRYPDFIVGLKVRVSKSVVGDNGVEPLRVAKQYQADLTVQLPLMVHIGSNPPELAAIIALMRPGDVLTHCFNGKPNGIVNSTGEVAQYVRKAYQKGLIFDVGHGTDSFSFRTAALARTAHLFPQTLSSDIYYRNRLNGPVYSLAVCVEKLLLLGYRLEEIIPMITTNPARIFKLTHKGQLCRGYDADLTIFQTVTAPQIVVDSTGEERIAPTQVIPTYSVIAGRVYTCGVDKEGHHHHHH | soluble
MIIPLVFLIGFAAAGNFGSSSSESCEDGNGGGRPRPGNGGGRPPGNGNGNGNGGGRPTNGGCDAGWRRFNRPNGGWCVRVFGARMTQADAQIQCQSYGATLSSLQNMEEALQINNMALSVIKANTGSVWIGAKRTTACLKQWLWTNGCGRQNSFAWTDGSATGVAGFVWDNLQPDNDELKQPCAVMLAARAAVTWGGKFWQPAMLDDNNCMFDLEGKHPRSVYGYVCGKNSRA | not soluble
MGSDKIHHHHHHMAMVVLGAGGGLGRAITLELSKQYPDERIFALSRQPEVPETDSSDVTYCRIEDYDEKALGAWVSEFKNNGEQLSGVVSTIGMLHDEETFPEKKLTDITADNLNKLFSVNAVKPMLALKAFLPILDRKKTRFWVQLSAKVGSIEDNYLGGWYAYRSSKAGLNMLLKTASIELKRTHKNLIVAAIHPGTTDTRLSEPFQERISTDKLYSPELSAERIVAVVKNLKPENTGALWHWDGSRLPY | not soluble
MGSDKIHHHHHHMNKVLNKESAPAYRLTPEWELYTSVVTTSLNNSFYEQEEERIERVRTLIGKCNPLFVAQLAAYARETMNLRSIPLVMAVELARIHQGDNLVKRVTARTVRRADEITELLACYQQANRRTGTKKLNRLSKQLQAGLQDAFNTFDAYQFAKYNRSAEVCLKDALFLVHPKAKDERQQEIFNGIVNDNLPVPYTWETELSALGQRTFATEEERRKAFRAKWEELIDSGKLGYMALLRNLRNILEAEVSADHILTVGKRLSSEKAVENSRQLPFRFLAAYRELSKTPSLYATMLMTALERAVQVSARNITGFDESTRVLIACDVSGSMQCPVSAKSKVLYYDIGLLLGMLLKSRCKQVMTGIFGDRWKIINLPDTGILSNVDAFYKREGEVGYSTNGYLVIKDLIDRKAQMDKIMMFTDCQLWNSHSDLQITDLWRKYKKICPAAKLYLFDLSGYGNTPLDITRDDVFLIAGWSDKIFDILSAIDKGNDALQEIKKIVV | not soluble
MGVFAQNLKFGHINAQEIVSAMPEFAKAQSDIEALDKQLTSELQRTQEEFNKKYQEFQQAIAKDSLPANIAERRQKELQDMMQRQEQFQQEAQQQMQKAQADAMAPIYKKLDDAIKAVGAAEGVIYIFDLARTPVAYVNESQSINLTPKVKTQLGIK | not soluble
MGSDKIHHHHHHMVTQMLEGKKVAILVETEFIPEEIAAYRQHFEELGATVHFMSRLWGNETVQFVSDVDEIGKSLQYLDVNIDFQSVDVNEYAAVIMAANYTSVRLRYFQPPPGQQISPEQTRTAPAIQFFAQAMANHKIIKGLLCHGLWLLTPMPELLRGRKVICHEVVLADIANAGAVYVPPPVNSQPNDPGNIVVDRDLVTGRAGHDVYAFIDAIAHQIASQEQRCLETQRR | not soluble
MFGNYISTSPEKIIMLALRIMQGIAKTLAEHVLDLKHSPLSKQAMKRQTLRLWAEYSLGTINKIIDMKSGPSNQSAEEMEFIRRLILIRRDIHSQLHSVGIDINDGTGD | not soluble
MMVKSFTPPSSQSSVQDSGNSKLSVIEVVPENGIGALVSSSPTILRTTQAEPEILRYDPVEILAHYENKLLQVLRRTLAVLQPTLSYVFGLWLDNKRGVKVKNDRSRAIQLRELLTKLGPAYIKIGQALSTRPDLVPPVYLEELTRLQDQLPAFPNEIAYQFIEEELGAKPEEIYAEVSPEPIAAASLGQVYKGKLKTGEEVAIKVQRPDLREIITIDLYILRRLAGWVQRKVKRVRSDLVGILDELGDRIFEEMDYIHEGENAERFFELYGHIQDIYVPKIYWEYTNRRVLTMEWIKGIKLTQTSEIKELGIDARYLIEVGVQCSLRQLLEHGFFHADPHPGNLLATFDGKLAYLDFGMMSEIRPPQRYGLIEAIVHVVNRDFDSLAQDYVKLEFLSPETDLTPIIPAFGKVFANAQGASVAELNIKSITDDLSALMYEYPFRVPPYYALIIRSLVTLEGIAIYIDPNFKVLSEAYPYVSKRLLTDPADELRTSLRDLLFKMVNSGGIV | not soluble
